Tests used:
human IL-1α (human) [1] = target: human IL-1α (human) (UniProt P01583); experiment: cell-based or functional assay
human IL-1β (human) [2] = target: human IL-1β (human) (UniProt P01584); experiment: cell-based or functional assay
human IL-1α (human) [3] = target: human IL-1α (human) (UniProt P01583); experiment: SPR, Biacore T200; binder captured by anti-human Fc, cytokine injected; 1:1 Langmuir
human IL-1β (human) [4] = target: human IL-1β (human) (UniProt P01584); experiment: as above
mouse IL-1α (mouse) = mouse IL-1α (mouse) (UniProt P01582); experiment: as above
Chain of mouse IL-1α (mouse) (P01582 115-270 limits assumed): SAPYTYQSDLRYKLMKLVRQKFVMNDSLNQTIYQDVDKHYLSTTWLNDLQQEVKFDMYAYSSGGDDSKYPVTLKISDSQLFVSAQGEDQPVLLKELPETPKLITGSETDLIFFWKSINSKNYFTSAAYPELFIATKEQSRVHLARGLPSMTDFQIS

mouse IL-1β (mouse) = mouse IL-1β (mouse) (UniProt P10749); experiment: as above
Chain of mouse IL-1β (mouse) (P10749 118-269 limits assumed): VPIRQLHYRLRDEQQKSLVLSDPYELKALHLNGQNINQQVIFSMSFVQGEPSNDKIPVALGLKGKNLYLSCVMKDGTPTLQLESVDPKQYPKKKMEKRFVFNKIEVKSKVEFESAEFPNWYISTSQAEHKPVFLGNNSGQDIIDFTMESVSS

[5] = target: rhesus monkey (Rhesus macaque) IL-1β (rhesus monkey (Rhesus macaque)) (UniProt P48090); experiment: as above
human FcγRI (human) [6] = target: human FcγRI (human) (UniProt P12314); experiment: BLI, Octet Red96e; His-tagged FcγRI on anti-Penta-HIS sensor, 80-1,280 nM analyte; 1:1 model
Chain of human FcγRI (human) (P12314 16-288 limits assumed): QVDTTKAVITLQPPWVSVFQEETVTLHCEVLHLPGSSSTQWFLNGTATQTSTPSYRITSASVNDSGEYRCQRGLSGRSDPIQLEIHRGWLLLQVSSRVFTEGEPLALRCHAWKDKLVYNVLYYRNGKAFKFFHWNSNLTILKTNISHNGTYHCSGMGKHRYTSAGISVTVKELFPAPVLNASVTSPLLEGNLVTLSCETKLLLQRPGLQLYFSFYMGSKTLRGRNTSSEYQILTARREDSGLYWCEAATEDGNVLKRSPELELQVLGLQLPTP

human IL-1β (human) [7] = target: human IL-1β (human) (UniProt P01584); experiment: ELISA, human IL-1β coated at 30 ng/well, detection with anti-human IgG Fc-HRP, OD 450 nm
human FcγRIIIA (human) [8] = target: human FcγRIIIA (human) (UniProt P08637); experiment: BLI, Octet Red96e; His-tagged FcγRIIIA on anti-Penta-HIS sensor, 80-1,280 nM analyte; 1:1 model
Chain of human FcγRIIIA (human) (P08637 17-208 limits assumed): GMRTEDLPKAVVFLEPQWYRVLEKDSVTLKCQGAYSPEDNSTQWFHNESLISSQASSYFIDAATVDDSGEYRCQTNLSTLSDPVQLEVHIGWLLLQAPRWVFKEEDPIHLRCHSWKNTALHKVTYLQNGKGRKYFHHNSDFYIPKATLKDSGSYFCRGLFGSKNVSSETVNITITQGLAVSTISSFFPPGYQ

human FcγRIIIA (human) [9] = target: human FcγRIIIA (human) (UniProt P08637); experiment: BLI (Octet Red96e), His-tagged human FcγRIIIA on Anti-Penta-HIS biosensor, analyte 80-1280 nM, 1:1 model [B]
[10] = target: Human FcRn (Homo sapiens) (UniProt P55899); experiment: BLI (Octet Red96e), His-tagged human FcRn on Anti-Penta-HIS biosensor, pH 6.0, analyte 31.25-1000 nM, 1:1 model [A]
human FcγRI (human) [11] = target: human FcγRI (human) (UniProt P12314); experiment: BLI (Octet Red96e), His-tagged human FcγRI on Anti-Penta-HIS biosensor, analyte 10-160 nM as printed on the sheet, 1:1 model [B]

Chain of human IL-1α (human) (P01583 113-271 limits assumed): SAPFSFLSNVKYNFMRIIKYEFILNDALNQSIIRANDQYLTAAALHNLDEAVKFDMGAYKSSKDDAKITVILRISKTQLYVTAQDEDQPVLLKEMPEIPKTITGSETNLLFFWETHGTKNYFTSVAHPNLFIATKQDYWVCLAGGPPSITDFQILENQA

An SEAP secretion, IL-1β reporter HEK 293 cell line, 10 ng/ml human IL-1α (human IL-1α (human) [1]) of 0.308 nM, an EC50 of in vivo neutralisation: inhibition of the rise of serum IL-6 in C57BL/6 mice given human IL-1β (300 ng/kg i.p.) 24 h after s.c. rilonacept (human IL-1β (human) [2]) of 10.5 µg/kg and an IL-1β-mediated IL-6 secretion, A549 cell line, 1 ng/ml IL-1β (human IL-1β (human) [2]) of 37 pM were found for rilonacept (Fc fusion) in this work. The SEAP secretion, IL-1β reporter HEK 293 cell line, 10 ng/ml human IL-1β (human IL-1β (human) [2]) was 0.243 nM, the inhibition of SEAP secretion at 4 nM, IL-1β reporter HEK 293 cell line (human IL-1β (human) [2]) was 99.5% and the inhibitory activity (%) on the IL-1β-induced rise of serum IL-6 in mice, at a 3-fold molar excess over the administered IL-1β (human IL-1β (human) [2]) was 50%. For the same substance, the Kd (human IL-1α (human) [3]) was 0.00491 nM, the koff (human IL-1α (human) [3]) was 4.5e-05 s⁻¹ and the kon (human IL-1α (human) [3]) was 9.18e+06 M⁻¹ s⁻¹. For the same substance, the Kd (human IL-1β (human) [4]) was 0.00256 nM, the koff (human IL-1β (human) [4]) was 8.67e-05 s⁻¹ and the kon (human IL-1β (human) [4]) was 3.39e+07 M⁻¹ s⁻¹. For the same substance, the Kd (mouse IL-1α (mouse)) was 0.0383 nM, the koff (mouse IL-1α (mouse)) was 0.000178 s⁻¹ and the kon (mouse IL-1α (mouse)) was 4.66e+06 M⁻¹ s⁻¹. The Kd (mouse IL-1β (mouse)) was 0.369 nM, the koff (mouse IL-1β (mouse)) was 0.000328 s⁻¹ and the kon (mouse IL-1β (mouse)) was 890000 M⁻¹ s⁻¹. For the same substance, the Kd [5] was 0.00178 nM, the koff [5] was 2.43e-05 s⁻¹ and the kon [5] was 1.36e+07 M⁻¹ s⁻¹. The Kd (human FcγRI (human) [6]) was 45.8 nM, the EC50 (human IL-1β (human) [7]) was 0.0947 nM and the Kd (human FcγRIIIA (human) [8]) was 913 nM. For the same substance, the koff (human FcγRIIIA (human) [9]) was 0.0538 s⁻¹, the kon (human FcγRIIIA (human) [9]) was 59000 M⁻¹ s⁻¹ and the Kd [10] was 453 nM. It also gave a koff [10] of 0.0489 s⁻¹, a kon [10] of 108000 M⁻¹ s⁻¹ and a koff (human FcγRI (human) [11]) of 0.00209 s⁻¹. For the same substance, the kon (human FcγRI (human) [11]) was 45600 M⁻¹ s⁻¹.

Reference: patent US20240254196A1
